The target of test [1] is TANV16L (tanapoxvirus 16L) lacking the C-terminal 23 residues, wild type (tanapoxvirus). The experiment in a line: AUC.
The target in test [2] is human Bax BH3 motif peptide (28-mer) (human). The experiment in a line: ITC. (In general: ITC needs no label: the signal is the heat of the interaction.)
For test [3], the target named is human Bak BH3 motif peptide (26-mer) (human). The experiment in a line: ITC.

Several values for one entry are separate records, joined by “and”; a condition that tells them apart may be missing. Equal values may be shown once.

By stoichiometry N is commonly meant a count of units in the complex or per binding partner. In general, Kd refers to the concentration at which binding is half-saturated. The low end stands for higher affinity, the high end for lower affinity. As for “TANV16L (tanapoxvirus 16L) lacking the C-terminal 23 residues, wild type (domain or fragment)”, the ratio of monomer:dimer in test [1] is 3.5 :1. For the same substance, in test [1], the stoichiometry N was 2 and 4. The Kd in test [2] was found to be 70 nM; in test [3], 38 nM.

Values taken from publication doi:10.1101/2020.01.21.914671.
